Paper PMC9844859, “Appia: Simpler chromatography analysis and visualization” (PLOS ONE, 2023)

Molecular target: T1, Human NEDD4-2-GFP (human, UniProt Q96PU5 1-975)
T1 construct: NEDD4-2 (E3 ubiquitin ligase NEDD4-like), human; also called NEDD4-2-GFP fusion protein; source: Sf9 cells (MOI of 5, 48 hours), purified (TALON resin, SEC)
T1 sequence (looked up): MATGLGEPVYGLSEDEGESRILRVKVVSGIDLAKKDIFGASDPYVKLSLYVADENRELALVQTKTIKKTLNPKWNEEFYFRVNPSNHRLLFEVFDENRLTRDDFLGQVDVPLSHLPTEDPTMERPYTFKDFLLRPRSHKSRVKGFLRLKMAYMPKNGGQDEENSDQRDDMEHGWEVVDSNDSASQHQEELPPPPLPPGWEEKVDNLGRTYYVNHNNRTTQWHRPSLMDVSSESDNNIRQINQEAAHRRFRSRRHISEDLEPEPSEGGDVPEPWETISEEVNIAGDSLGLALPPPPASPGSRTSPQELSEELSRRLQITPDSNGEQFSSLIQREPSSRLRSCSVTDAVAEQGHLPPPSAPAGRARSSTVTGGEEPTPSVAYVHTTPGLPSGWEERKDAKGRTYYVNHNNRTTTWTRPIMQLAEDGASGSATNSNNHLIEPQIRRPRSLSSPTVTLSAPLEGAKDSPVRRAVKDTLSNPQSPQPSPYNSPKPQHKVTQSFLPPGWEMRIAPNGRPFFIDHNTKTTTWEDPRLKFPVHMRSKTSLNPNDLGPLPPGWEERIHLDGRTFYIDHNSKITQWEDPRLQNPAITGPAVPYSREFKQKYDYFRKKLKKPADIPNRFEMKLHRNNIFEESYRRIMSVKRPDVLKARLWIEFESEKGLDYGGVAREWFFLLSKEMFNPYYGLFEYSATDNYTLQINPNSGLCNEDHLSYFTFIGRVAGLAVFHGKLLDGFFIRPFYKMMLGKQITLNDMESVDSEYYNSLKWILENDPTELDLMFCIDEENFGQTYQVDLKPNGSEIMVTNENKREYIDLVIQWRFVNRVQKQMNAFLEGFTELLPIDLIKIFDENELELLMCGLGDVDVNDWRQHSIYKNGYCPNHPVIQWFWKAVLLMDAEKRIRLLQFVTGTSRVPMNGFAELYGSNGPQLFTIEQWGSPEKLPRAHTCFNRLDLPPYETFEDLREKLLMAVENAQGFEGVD
Assay: SEC; fluorescence-detection SEC (FSEC), GFP channel; NEDD4-2-GFP held at 71.2 nM, ENaC αβγ added in equal amounts, five-fold or ten-fold excess; Superose 6 Increase 10/300; TBS (20 mM Tris pH 7.5, 200 mM NaCl) + 0.5 mM DDM
Conditions: both partners purified

B1: triheteromeric αβγ Epithelial Sodium Channel (ENaC αβγ) (complex)
chain 1: MEGNKLEEQDSSPPQSTPGLMKGNKREEQGLGPEPAAPQQPTAEEEALIEFHRSYRELFEFFCNNTTIHGAIRLVCSQHNRMKTAFWAVLWLCTFGMMYWQFGLLFGEYFSYPVSLNINLNSDKLVFPAVTICTLNPYRYPEIKEELEELDRITEQTLFDLYKYSSFTTLVAGSRSRRDLRGTLPHPLQRLRVPPPPHGARRARSVASSLRDNNPQVDWKDWKIGFQLCNQNKSDCFYQTYSSGVDAVREWYRFHYINILSRLPETLPSLEEDTLGNFIFACRFNQVSCNQANYSHFHHPMYGNCYTFNDKNNSNLWMSSMPGINNGLSLMLRAEQNDFIPLLSTVTGARVMVHGQDEPAFMDDGGFNLRPGVETSISMRKETLDRLGGDYGDCTKNGSDVPVENLYPSKYTQQVCIHSCFQESMIKECGCAYIFYPRPQNVEYCDYRKHSSWGYCYYKLQVDFSSDHLGCFTKCRKPCSVTSYQLSAGYSRWPSVTSQEWVFQMLSRQNNYTVNNKRNGVAKVNIFFKELNYKTNSESPSVTMVTLLSNLGSQWSLWFGSSVLSVVEMAELVFDLLVIMFLMLLRRFRSRYWSPGRGGRGAQEVASTLASSPPSHFCPHPMSLSLSQPGPAPSPALTAPPPAYATLGPRPSPGGSAGASSSTCPLGGP
chain 2: MHVKKYLLKGLHRLQKGPGYTYKELLVWYCDNTNTHGPKRIICEGPKKKAMWFLLTLLFAALVCWQWGIFIRTYLSWEVSVSLSVGFKTMDFPAVTICNASPFKYSKIKHLLKDLDELMEAVLERILAPELSHANATRNLNFSIWNHTPLVLIDERNPHHPMVLDLFGDNHNGLTSSSASEKICNAHGCKMAMRLCSLNRTQCTFRNFTSATQALTEWYILQATNIFAQVPQQELVEMSYPGEQMILACLFGAEPCNYRNFTSIFYPHYGNCYIFNWGMTEKALPSANPGTEFGLKLILDIGQEDYVPFLASTAGVRLMLHEQRSYPFIRDEGIYAMSGTETSIGVLVDKLQRMGEPYSPCTVNGSEVPVQNFYSDYNTTYSIQACLRSCFQDHMIRNCNCGHYLYPLPRGEKYCNNRDFPDWAHCYSDLQMSVAQRETCIGMCKESCNDTQYKMTISMADWPSEASEDWIFHVLSQERDQSTNITLSRKGIVKLNIYFQEFNYRTIEESAANNIVWLLSNLGGQFGFWMGGSVLCLIEFGEIIIDFVWITIIKLVALAKSLRQRRAQASYAGPPPTVAELVEAHTNFGFQPDTAPRSPNTGPYPSEQALPIPGTPPPNYDSLRLQPLDVIESDSEGDAI
chain 3: MAPGEKIKAKIKKNLPVTGPQAPTIKELMRWYCLNTNTHGCRRIVVSRGRLRRLLWIGFTLTAVALILWQCALLVFSFYTVSVSIKVHFRKLDFPAVTICNINPYKYSTVRHLLADLEQETREALKSLYGFPESRKRREAESWNSVSEGKQPRFSHRIPLLIFDQDEKGKARDFFTGRKRKVGGSIIHKASNVMHIESKQVVGFQLCSNDTSDCATYTFSSGINAIQEWYKLHYMNIMAQVPLEKKINMSYSAEELLVTCFFDGVSCDARNFTLFHHPMHGNCYTFNNRENETILSTSMGGSEYGLQVILYINEEEYNPFLVSSTGAKVIIHRQDEYPFVEDVGTEIETAMVTSIGMHLTESFKLSEPYSQCTEDGSDVPIRNIYNAAYSLQICLHSCFQTKMVEKCGCAQYSQPLPPAANYCNYQQHPNWMYCYYQLHRAFVQEELGCQSVCKEACSFKEWTLTTSLAQWPSVVSEKWLLPVLTWDQGRQVNKKLNKTDLAKLLIFYKDLNQRSIMESPANSIEMLLSNFGGQLGLWMSCSVVCVIEIIEVFFIDFFSIIARRQWQKAKEWWAWKQAPPCPEAPRSPQGQDNPALDIDDDLPTFNSALHLPPALGTQVPGTPPPKYNTLRLERAFSNQLTDTQMLDEL
notes: ENaC alpha subunit; ENaC beta subunit; ENaC gamma subunit; The trypsin treatment may also cut the subunits themselves; also called αβγ ENaC; source: HEK293S GnTI- cells, baculovirus, purified (GFP nanobody resin, eluted with trypsin, SEC) as described for ENaC δβγ; copies: + +
- percent of total NEDD4-2 bound at a 1:5 NEDD4-2:ENaC αβγ ratio: ~20%
